For data set [1], the target named is T1, MLL1 PHD3-Bromo cassette (Homo sapiens, UniProt Q03164, DEL1666-1702). Nature of the data set: ITC binding of H3K4me peptides to coexpressed MLL1 PHD3-Bromo cassette. Particulars: vs H3K4me3 peptide without added Ala.
Data set [2] deals with HOXA9 expression in 293T cells. Nature of the data set: HOXA9 expression in transfected 293T cells. In kind it is cell-based. Particulars: overexpression, real-time PCR, empty vector control. (In qPCR the cycle at which signal appears reflects the starting amount.)
Data set [3] has as its system HOXC8 expression in 293T cells. Kind of data set: HOXC8 expression in transfected 293T cells. Type of data set: cell-based. Particulars: overexpression, real-time PCR, empty vector control.
The subject of the next data set is HOXA9. Kind of data set: Anti-HA ChIP of CyP33 binding at HOXA9. Type of data set: cell-based. Particulars: 293T cells, typical for at least three independent experiments.
A further data set deals with HOXC8. Kind of data set: Anti-HA ChIP of CyP33 binding at HOXC8. Type of data set: cell-based. To be noted: 293T cells, typical for at least three independent experiments.
Data set [4] relates to HOXC8 locus in K562 cells. Particulars: ref Fair et al., 2001; cited from earlier work.
Data set [5] concerns the target T1, MLL1 PHD3-Bromo cassette. Kind of data set: Gel filtration complex formation with MLL1 PHD3-Bromo cassette. Type of data set: binding. Particulars: for binding of CyP33 mutants to PHD3-Bromo: in vitro, Figure 4, lines 7 and 11. In general terms: Size exclusion chromatography separates by hydrodynamic size, large species first.
The next data set deals with H3 acetylation at HOXA9. Kind of data set: ChIP with anti-H3 pan acetyl. Particulars: 293T cells, overexpression, anti-H3 pan acetyl (AcH3), typical for at least three independent experiments. In kind it is cell-based.
For the next data set, the system named is H3 acetylation at HOXC8. Kind of data set: ChIP with anti-H3 pan acetyl. Type of data set: cell-based. To be noted: 293T cells, overexpression, anti-H3 pan acetyl (AcH3), typical for at least three independent experiments.
Data set [6] concerns the target coexpressed MLL1 PHD3-Bromo cassette (residues 1566–1784, with deletion of 1666–1702 ZA loop segment) (human) (UniProt Q03164). Kind of data set: ITC.
The target of data set [7] is complex of MLL1 PHD3-Bromo cassette and full-length CyP33 (UniProt Q03164). Nature of the data set: ITC. In general terms: Isothermal titration calorimetry measures the heat released or taken up as one component is titrated into another.
The subject of data set [8] is MLL1 PHD3-Bromo cassette (1566–1784). Nature of the data set: 1H,15N-HSQC titration of MLL1 PHD3-Bromo cassette with acetyllysine peptides. In kind it is binding. Particulars: five equivalents of H4(7-17)K12ac or H4(14-19)K16ac, H3K23ac and H3K27ac data not shown.
Data set [9] has as its system MLL1 Bromo alone (1639–1784). Kind of data set: 1H,15N-HSQC titration of MLL1 Bromo alone with acetyllysine peptides. In kind it is binding. Particulars: five equivalents of H4(7-17)K12ac or H4(14-19)K16ac, H3K23ac and H3K27ac data not shown.
For a further data set, the system named is MLL1 PHD3 domain alone. Nature of the data set: Gel filtration complex formation with MLL1 PHD3 alone. In kind it is binding.
In data set [10] the test system is MLL1 PHD3-Bromo mutant, where Pro1629 was replaced by Ala. Kind of data set: Complex formation with MLL1 PHD3-Bromo Pro1629 to Ala mutant. In kind it is binding. To be noted: in the absence of CyP33 PPIase domain.
The next data set has as its system MLL1 PHD3 M1606D mutant. Nature of the data set: Complex formation with MLL1 PHD3 M1606D. In kind it is binding. To be noted: Figure 4, line 10.
In the next data set the test system is MLL2 PHD3. Nature of the data set: Gel filtration complex formation with MLL2 PHD3. In kind it is binding.
The test system of another data set is MLL2 PHD3 D1375M mutant. Nature of the data set: Complex formation with MLL2 PHD3 D1375M. Particulars: Figure 4, line 13. In kind it is binding.
The test system of the next data set is MLL1 (1566–1639). Kind of data set: NMR monitoring of Pro1629 cis-to-trans transition. Type of data set: binding. To be noted: 1H,13C-HSQC.
The test system of the next data set is MLL1 PHD3. Nature of the data set: 1H,15N-HSQC Trp1594 indole resonance on sequential addition. Type of data set: binding. Particulars: H3K4me3 first (binary complex), then CyP33 RRM (ternary complex).
The subject of another data set is AU-rich RNAs. Particulars: ref Mi et al., 1996; Wang et al., 2008; cited from earlier work.
The next data set concerns the target T2, CyP33 RRM (1–82) (UniProt Q9UNP9 1-82).
T2 sequence (looked up): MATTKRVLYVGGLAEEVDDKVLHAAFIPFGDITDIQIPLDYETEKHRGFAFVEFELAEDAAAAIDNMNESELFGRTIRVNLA
Nature of the data set: NMR titration.

In data set [11] the target is MLL1 PHD3-Bromo Y1581A mutant (human, UniProt Q03164 1566-1665; Q03164 1703-1784, Y1581A). Nature of the data set: ITC.
Data set [12] addresses MLL1 PHD3-Bromo Q1587A mutant (human, UniProt Q03164 1566-1665; Q03164 1703-1784, Q1587A). Nature of the data set: ITC.
In a further data set the target is T3, CyP33 RRM (2–82) (UniProt Q9UNP9 2-82).
T3 sequence (looked up): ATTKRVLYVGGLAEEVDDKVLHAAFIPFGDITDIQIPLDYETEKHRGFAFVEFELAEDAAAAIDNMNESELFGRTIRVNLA
Kind of data set: NMR structure.

“Also recorded” adds a separate entry of the source. No end group written: not given here.

The source of these data is PMC4690531 (Cell, 2010).

Take `C[C@H](N)C(=O)N[C@@H](C)C(=O)N[C@@H](C)C(=O)N[C@@H](C)C(=O)N[C@@H](CCCNC(=N)N)C(=O)N[C@H](C(=O)N[C@@H](CCCC[N+](C)(C)C)C(=O)N[C@@H](CCC(N)=O)C(=O)N[C@H](C(=O)N[C@@H](C)C(=O)N[C@@H](CCCNC(=N)N)C(=O)N[C@@H](CCCCN)C(=O)N[C@@H](CO)C(=O)N[C@H](C(=O)NCC(=O)NCC(=O)N[C@@H](CCCCN)C(=O)N[C@@H](C)C(=O)O)[C@@H](C)O)[C@@H](C)O)[C@@H](C)O` [Ala-Ala-Ala tri-peptide]: at MLL1 PHD3-Bromo cassette [1], the “increase of dissociation constant on N-terminal extension” value is 15 fold.
Same read-out and setting: under `C[C@H](N)C(=O)N[C@@H](C)C(=O)N[C@@H](CCCNC(=N)N)C(=O)N[C@H](C(=O)N[C@@H](CCCC[N+](C)(C)C)C(=O)N[C@@H](CCC(N)=O)C(=O)N[C@H](C(=O)N[C@@H](C)C(=O)N[C@@H](CCCNC(=N)N)C(=O)N[C@@H](CCCCN)C(=O)N[C@@H](CO)C(=O)N[C@H](C(=O)NCC(=O)NCC(=O)N[C@@H](CCCCN)C(=O)N[C@@H](C)C(=O)O)[C@@H](C)O)[C@@H](C)O)[C@@H](C)O` [single Ala] stands 6 fold.
As to “CyP33: cyclophilin with N-terminal RRM and C-terminal PPIase domain; FLAG-HA-tagged in 293T experiments”, the “HOXA9 repression” value in data set [2] was “reduced”. Besides, the “HOXC8 repression” value in [3] is on record as “reduced”. Further, the “CyP33 binding to HOXA9” value with HOXA9 was “bound to HOXA9 and HOXC8”. In the data set with HOXC8, the “CyP33 binding to HOXC8” value is “bound to HOXA9 and HOXC8”. Moreover, the “repression of HOXC8 locus” value in data set [4] was “repressor of the HOXC8 locus”.
Regarding “F51D: CyP33 with F51D mutation in the RRM domain”, the “binding of CyP33 mutants to PHD3-Bromo” value in the data set with MLL1 PHD3-Bromo cassette [5] was “sufficient to abolish the binding between CyP33 and MLL1 PHD3-Bromo”. The “HOXA9 repression” value in [2] was “did not cause any repression of either HOX gene; also recorded: not in cells expressing the F51D; also recorded: unable to deacetylate and repress target genes”. Besides, in data set [3], the “HOXC8 repression” value is “did not cause any repression of either HOX gene; also recorded: not in cells expressing the F51D; also recorded: unable to deacetylate and repress target genes”. In addition, the “H3 acetylation at HOXA9” value in the data set on H3 acetylation at HOXA9 is recorded as “not in cells expressing the F51D; also recorded: unable to deacetylate”. For the same molecule, the “H3 acetylation at HOXC8” value with H3 acetylation at HOXC8 is “unable to deacetylate”. For the same molecule, the “CyP33 binding to HOXA9” value in the data set on HOXA9 is “variably reduced CyP33 binding; also recorded: only partially disrupted in its ability to bind to HOXA9 and HOXC8”. Moreover, the “CyP33 binding to HOXC8” value in the data set with HOXC8 was “variably reduced CyP33 binding; also recorded: only partially disrupted in its ability to bind to HOXA9 and HOXC8”.
As to “F196E/M197E: CyP33 with F196E/M197E double mutation in the PPIase domain”, the “binding of CyP33 mutants to PHD3-Bromo” value with MLL1 PHD3-Bromo cassette [5] is “reduced the binding between CyP33 and PHD3-Bromo”. In data set [2], the “HOXA9 repression” value is recorded as “did not cause any repression of either HOX gene; also recorded: not in cells expressing the F51D (green bars)or F196E/M197E”. Moreover, the “HOXC8 repression” value in [3] was “did not cause any repression of either HOX gene; also recorded: not in cells expressing the F51D (green bars)or F196E/M197E”. In addition, in the data set on H3 acetylation at HOXA9, the “H3 acetylation at HOXA9” value was “not in cells expressing the F51D (green bars) and F196E/M197E”. In addition, in the data set on HOXA9, the “CyP33 binding to HOXA9” value was “bound to HOXA9 and HOXC8”. Besides, in the data set on HOXC8, the “CyP33 binding to HOXC8” value is “bound to HOXA9 and HOXC8”.
In general, Kd refers to a measure of binding affinity in units of concentration. A high value points to lower affinity. As for “H3(1-15)K4me1 peptide (from UniProt P68431 2-16)”, the Kd in data set [6] amounted to 53 µM.
Turning to “H3(1-15)K4me2 peptide (from UniProt P68431 2-16)”, the dissociation constant (Kd) in data set [6] came out at 6.9 µM; in [7] it was 15.2 µM.
For “H3(1-15)K4me3 peptide (from UniProt P68431 2-16)” the same measures were 4.3 µM and 11.6 µM.
With “H3K4me3 peptide with a single Ala added at the N terminus”, in data set [6], the Kd amounted to 26 µM.
Same read-out and setting: under “H3K4me3 peptide with an Ala-Ala-Ala tripeptide added at the N terminus” stands 64 µM.
Take “H4(7-17)K12ac: acetylated histone H4 peptide”: the “complexation shifts, PHD3-Bromo cassette” value in data set [8] was “did not observe any complexation shifts”. For the same molecule, in [9], the “complexation shifts, Bromo alone” value was “did not observe any complexation shifts”.
For “H4(14-19)K16ac: acetylated histone H4 peptide”, the “complexation shifts, PHD3-Bromo cassette” value in data set [8] is “did not observe any complexation shifts”. Besides, the “complexation shifts, Bromo alone” value in data set [9] was “did not observe any complexation shifts”.

B1: CyP33 RRM: RRM domain (1–82) of CyP33 (protein)
chain: T2 sequence (looked up)
Consider B1, for which the “complex formation with PHD3 alone” value with MLL1 PHD3 domain alone is “formed a complex with the PHD3 domain alone”. For the same molecule, the “complex formation with PHD3-Bromo cassette” value with MLL1 PHD3-Bromo cassette [5] (gel filtration) is reported as “not with the PHD3-Bromo cassette”. Moreover, the “interaction with PHD3-Bromo P1629A” value in [10] is recorded as “interacted with a PHD3-Bromo mutant”. For the same molecule, in the data set on MLL1 PHD3 M1606D mutant, the “complex formation with MLL1 PHD3 M1606D” value is recorded as “completely disrupted its complex formation with CyP33 RRM”. Also, the “binding to MLL2 PHD3” value in the data set with MLL2 PHD3 is recorded as “does not bind CyP33 RRM”. Besides, the “binding to MLL2 PHD3 D1375M” value in the data set on MLL2 PHD3 D1375M mutant is on record as “converted MLL2 PHD3 to a CyP33 RRM binding partner”. Further, in the data set with MLL1 (1566–1639), the “His1628-Pro1629 peptide bond configuration change” value is “transits from cis-to-trans configuration upon interaction with CyP33 RRM”. In addition, the “Pro1629 Cγ chemical shift upon addition” value in the data set with MLL1 (1566–1639) (major cross peak 25.3 ppm (cis) in free state) turned out to be 27.5 ppm. Moreover, the “Trp1594 indole resonance shift on sequential addition” value in the data set with MLL1 PHD3 is recorded as “upfield shift”. In addition, the RNA preference result with AU-rich RNAs is “some preference for AU-rich RNAs”.

B2: MLL1 (1566–1639) (domain or fragment, human, UniProt Q03164 1566-1639, looked up)
chain: GNFCPLCDKCYDDDDYESKMMQCGKCDRWVHSKCENLSDEMYEILSNLPESVAYTCVNCTERHPAEWRLALEKE
In the case of B2, in the data set with CyP33 RRM (1–82), the binding result is on record as “binds”.
Turning to ARTK(Me3)QTARKSTGGKA (peptide, UniProt P68431 2-16, looked up) [H3(1-15)K4me3 peptide], the binding result in [11] and in [12] was “binds” throughout.
MMQCGKCDRWVHSKCENLSDEMYEILSNLPESVAYTCVNCTERH (domain or fragment, human, UniProt Q03164 1585-1628, looked up) [interacting segment of MLL1 PHD3 (1585–1628)]: the binding result with CyP33 RRM (2–82) is given as “binds”.
